Data reported in paper PMC11150655, “IpaA reveals distinct modes of vinculin activation during Shigella invasion and cell-matrix adhesion” (Life Science Alliance, 2024).

Legend:
Conditions in all cases: both partners purified
[1] = molecular target: T1, vinculin D1D2 (vinculin residues 1–484) (human, UniProt P18206 1-484); assay: native gel or EMSA; band A′ cut from the CN-PAGE gel, run in a second dimension on SDS–PAGE, Coomassie staining and scanning densitometry of D1D2 and aVBD (N = 2)
T1 construct: vinculin, human, head subdomains D1 and D2, residues 1-484; Valencia-Gallardo et al, 2023) for the plasmid and the purification; also called WT; parental D1D2
T1 sequence (looked up): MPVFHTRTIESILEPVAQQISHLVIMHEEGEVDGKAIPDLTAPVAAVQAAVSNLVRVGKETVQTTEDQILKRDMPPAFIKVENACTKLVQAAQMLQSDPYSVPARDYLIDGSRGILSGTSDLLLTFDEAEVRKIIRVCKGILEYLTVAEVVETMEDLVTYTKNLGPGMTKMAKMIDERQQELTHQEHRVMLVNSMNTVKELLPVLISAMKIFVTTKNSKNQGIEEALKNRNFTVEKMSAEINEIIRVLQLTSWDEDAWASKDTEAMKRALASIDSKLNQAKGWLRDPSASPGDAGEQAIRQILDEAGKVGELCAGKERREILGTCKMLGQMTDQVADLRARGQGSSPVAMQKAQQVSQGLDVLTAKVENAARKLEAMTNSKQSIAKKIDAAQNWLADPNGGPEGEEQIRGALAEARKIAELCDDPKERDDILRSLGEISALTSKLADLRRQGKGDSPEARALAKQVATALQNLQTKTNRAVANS

[2] = molecular target: T1, vinculin D1D2 (vinculin residues 1–484); assay: native gel or EMSA; CN-PAGE: D1D2 variant (20 μM) with increasing molar ratio of aVBD, 60 min at 21°C; 7.5% (Fig 2, methods) or 10% (Fig 3, S3) native polyacrylamide gel, Coomassie staining, scanning densitometry normalised to monomeric D1D2 without aVBD; rates from linear fits against the aVBD:D1D2 ratio
vinculin D1D2 D389R = molecular target: T2, vinculin D1D2 D389R (human, UniProt P18206 1-484, D389R); assay: as above
T2 construct: vinculin, human, head subdomains D1 and D2, residues 1-484, with D389R
T2 sequence (looked up): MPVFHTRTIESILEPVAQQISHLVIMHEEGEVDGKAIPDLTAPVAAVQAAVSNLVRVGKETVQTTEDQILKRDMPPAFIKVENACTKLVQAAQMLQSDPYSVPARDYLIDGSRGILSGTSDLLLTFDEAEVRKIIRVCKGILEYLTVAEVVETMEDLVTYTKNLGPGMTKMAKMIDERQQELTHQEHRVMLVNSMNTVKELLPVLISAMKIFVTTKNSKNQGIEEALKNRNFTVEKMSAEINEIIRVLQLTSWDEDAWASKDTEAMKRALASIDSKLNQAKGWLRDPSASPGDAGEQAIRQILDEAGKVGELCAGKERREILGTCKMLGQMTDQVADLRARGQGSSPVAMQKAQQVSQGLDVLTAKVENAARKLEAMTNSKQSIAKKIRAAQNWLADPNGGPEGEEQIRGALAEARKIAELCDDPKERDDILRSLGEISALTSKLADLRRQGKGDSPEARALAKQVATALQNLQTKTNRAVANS

vinculin D1D2 E143K = molecular target: T3, vinculin D1D2 E143K (human, UniProt P18206 1-484, E143K); assay: as above
T3 construct: vinculin, human, head subdomains D1 and D2, residues 1-484, with E143K
T3 sequence (looked up): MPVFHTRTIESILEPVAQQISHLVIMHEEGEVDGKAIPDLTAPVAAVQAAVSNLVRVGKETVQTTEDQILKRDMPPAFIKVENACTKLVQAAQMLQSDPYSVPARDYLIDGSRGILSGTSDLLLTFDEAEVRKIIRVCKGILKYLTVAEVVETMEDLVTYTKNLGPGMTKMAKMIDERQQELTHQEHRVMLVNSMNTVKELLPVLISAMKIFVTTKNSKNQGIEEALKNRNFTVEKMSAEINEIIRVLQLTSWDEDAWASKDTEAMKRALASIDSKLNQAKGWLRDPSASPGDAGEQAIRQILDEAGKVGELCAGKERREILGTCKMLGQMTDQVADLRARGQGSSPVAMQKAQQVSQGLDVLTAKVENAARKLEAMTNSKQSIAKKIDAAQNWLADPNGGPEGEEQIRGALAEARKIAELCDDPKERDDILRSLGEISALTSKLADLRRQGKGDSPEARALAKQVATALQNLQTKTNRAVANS

vinculin D1D2 V367D = molecular target: T4, vinculin D1D2 V367D (human, UniProt P18206 1-484, V367D); assay: as above
T4 construct: vinculin, human, head subdomains D1 and D2, residues 1-484, with V367D
T4 sequence (looked up): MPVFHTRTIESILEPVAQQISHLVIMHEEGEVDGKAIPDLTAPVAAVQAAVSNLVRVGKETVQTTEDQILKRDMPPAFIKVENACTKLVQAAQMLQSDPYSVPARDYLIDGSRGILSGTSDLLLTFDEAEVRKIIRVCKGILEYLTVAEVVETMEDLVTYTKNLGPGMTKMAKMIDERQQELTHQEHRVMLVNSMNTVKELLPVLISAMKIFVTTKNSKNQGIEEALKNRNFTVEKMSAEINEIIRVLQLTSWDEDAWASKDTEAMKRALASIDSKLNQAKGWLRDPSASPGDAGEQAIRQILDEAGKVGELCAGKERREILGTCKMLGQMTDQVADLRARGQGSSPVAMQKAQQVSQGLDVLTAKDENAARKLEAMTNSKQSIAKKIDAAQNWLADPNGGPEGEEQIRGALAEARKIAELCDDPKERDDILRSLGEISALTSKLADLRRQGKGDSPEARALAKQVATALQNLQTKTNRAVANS

vinculin D1D2 K386D = molecular target: T5, vinculin D1D2 K386D (human, UniProt P18206 1-484, K386D); assay: as above
T5 construct: vinculin, human, head subdomains D1 and D2, residues 1-484, with K386D
T5 sequence (looked up): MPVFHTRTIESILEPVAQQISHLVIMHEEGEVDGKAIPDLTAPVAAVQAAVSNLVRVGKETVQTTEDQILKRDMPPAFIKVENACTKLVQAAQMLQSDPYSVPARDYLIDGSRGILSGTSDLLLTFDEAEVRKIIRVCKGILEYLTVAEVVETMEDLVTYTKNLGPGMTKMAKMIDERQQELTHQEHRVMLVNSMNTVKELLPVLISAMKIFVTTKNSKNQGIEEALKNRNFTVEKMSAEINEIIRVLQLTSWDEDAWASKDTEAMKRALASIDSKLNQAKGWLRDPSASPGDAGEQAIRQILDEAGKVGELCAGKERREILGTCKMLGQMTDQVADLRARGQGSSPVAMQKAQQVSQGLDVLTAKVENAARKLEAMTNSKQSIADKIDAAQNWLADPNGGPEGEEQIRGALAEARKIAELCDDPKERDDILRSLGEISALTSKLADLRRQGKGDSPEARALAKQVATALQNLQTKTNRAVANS

vinculin D1D2 K139E = molecular target: T6, vinculin D1D2 K139E (human, UniProt P18206 1-484, K139E); assay: as above
T6 construct: vinculin, human, head subdomains D1 and D2, residues 1-484, with K139E
T6 sequence (looked up): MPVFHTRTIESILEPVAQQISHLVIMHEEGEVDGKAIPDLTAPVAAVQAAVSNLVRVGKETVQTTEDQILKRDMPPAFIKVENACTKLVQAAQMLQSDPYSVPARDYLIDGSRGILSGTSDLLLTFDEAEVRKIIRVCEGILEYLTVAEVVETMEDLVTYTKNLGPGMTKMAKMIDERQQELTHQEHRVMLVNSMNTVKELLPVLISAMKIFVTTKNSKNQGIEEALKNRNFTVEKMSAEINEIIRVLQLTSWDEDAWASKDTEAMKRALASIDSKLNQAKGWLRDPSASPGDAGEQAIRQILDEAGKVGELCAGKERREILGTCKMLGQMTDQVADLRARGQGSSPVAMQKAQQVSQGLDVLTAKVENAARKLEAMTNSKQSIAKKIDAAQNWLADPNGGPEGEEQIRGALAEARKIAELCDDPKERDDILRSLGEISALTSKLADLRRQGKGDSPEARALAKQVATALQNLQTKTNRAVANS

vinculin D1D2 N393D = molecular target: T7, vinculin D1D2 N393D (human, UniProt P18206 1-484, N393D); assay: as above
T7 construct: vinculin, human, head subdomains D1 and D2, residues 1-484, with N393D
T7 sequence (looked up): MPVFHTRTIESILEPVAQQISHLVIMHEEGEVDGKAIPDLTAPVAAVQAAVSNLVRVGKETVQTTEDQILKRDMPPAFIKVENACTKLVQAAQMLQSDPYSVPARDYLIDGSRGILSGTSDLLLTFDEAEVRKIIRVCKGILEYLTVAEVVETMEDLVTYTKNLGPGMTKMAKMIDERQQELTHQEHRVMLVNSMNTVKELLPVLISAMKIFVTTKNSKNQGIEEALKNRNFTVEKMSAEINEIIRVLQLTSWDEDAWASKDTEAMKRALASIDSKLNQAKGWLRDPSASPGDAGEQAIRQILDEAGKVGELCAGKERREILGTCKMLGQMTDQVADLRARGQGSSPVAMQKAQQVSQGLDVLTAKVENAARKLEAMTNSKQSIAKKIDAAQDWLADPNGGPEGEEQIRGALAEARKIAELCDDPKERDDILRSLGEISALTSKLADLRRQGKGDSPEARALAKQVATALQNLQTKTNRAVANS

B1: IpaA domain containing all three IpaA VBS1-3 (aVBD) (domain or fragment)
chain: GDTYLTRETIFEASKKVTNSLSNLISLIGTKSGTQERELQEKSKDITKSTTEHRINNKLKVTDANIRNYVTETNADTIDKNHAIYEKAKEVSSALSKVLSKIDDTSAELLTDDISDLKNNNDITAENNNIYKAAKDVTTSLSKVLKNINKD
notes: The plasmid is said to be described previously; also called A483; source: E. coli DH5-α, pGEX-4T2-aVBD, purified (GSTrap, thrombin on the column, SEC on Superdex 200)
stoichiometry N [1]: 3.2 D1D2:aVBD molar ratio
rate of monomer disappearance [2]: -1.06 AU^−1
rate of monomer disappearance (vinculin D1D2 D389R): -1.06 AU^−1
rate of monomer disappearance (vinculin D1D2 E143K): -0.88 AU^−1
rate of monomer disappearance (vinculin D1D2 V367D): -0.88 AU^−1
rate of monomer disappearance (vinculin D1D2 K386D): -1.29 AU^−1
rate of monomer disappearance (vinculin D1D2 K139E): -1.42 AU^−1
rate of monomer disappearance (vinculin D1D2 N393D): -1.32 AU^−1
